B1: peptide HD2 (from tick evasin EVA4) / CCL4 (biotinylated, synthetic) (parent complex)
chain 1: EEDDYTAYAPLTCYFT
chain 2: APMGSDPPTACCFSYTARKLPRNFVVDYYETSSLCSQPAVVFQTKRSKQVCADPSESWVQEYVYDLELN

Variants of: B1

Variant	enrichment
chain 1 EEDDWTAYAPLTCYFT [chain 1 Y5W]	1.96 log2 (difference from the parental peptide)
chain 1 EEDDMTAYAPLTCYFT [chain 1 Y5M]	-3.3 log2 (difference from the parental peptide)
chain 1 EEDDITAYAPLTCYFT [chain 1 Y5I]	-5.08 log2 (difference from the parental peptide)
chain 1 EEDDHTAYAPLTCYFT [chain 1 Y5H]	-5.89 log2 (difference from the parental peptide)
chain 1 EEQDYTAYAPLTCYFT [chain 1 D3Q]	-3.56 log2 (difference from the parental peptide)
chain 1 EEGDYTAYAPLTCYFT [chain 1 D3G]	-2.44 log2 (difference from the parental peptide)
chain 1 EESDYTAYAPLTCYFT [chain 1 D3S]	-2.37 log2 (difference from the parental peptide)
chain 1 EEEDYTAYAPLTCYFT [chain 1 D3E]	1.01 log2 (difference from the parental peptide)
chain 1 EEWDYTAYAPLTCYFT [chain 1 D3W]	-2.32 log2 (difference from the parental peptide)
chain 1 EERDYTAYAPLTCYFT [chain 1 D3R]	-4.7 log2 (difference from the parental peptide)
chain 1 EEIDYTAYAPLTCYFT [chain 1 D3I]	-3.64 log2 (difference from the parental peptide)
chain 1 EENDYTAYAPLTCYFT [chain 1 D3N]	-2.11 log2 (difference from the parental peptide)
chain 1 EEDDYTAYYPLTCYFT [chain 1 A9Y]	-5.65 log2 (difference from the parental peptide)
chain 1 EEDDYTAYGPLTCYFT [chain 1 A9G]	-5.26 log2 (difference from the parental peptide)
chain 1 EEDDYTAYQPLTCYFT [chain 1 A9Q]	-0.79 log2 (difference from the parental peptide)
chain 1 EEDDYTAYVPLTCYFT [chain 1 A9V]	-8.22 log2 (difference from the parental peptide)
chain 1 EEDDYTAYMPLTCYFT [chain 1 A9M]	-3.9 log2 (difference from the parental peptide)
chain 1 EEDDYTAYFPLTCYFT [chain 1 A9F]	-6.63 log2 (difference from the parental peptide)
chain 1 EEDQYTAYAPLTCYFT [chain 1 D4Q]	-3.05 log2 (difference from the parental peptide)

Variant	enrichment
chain 1 EEDGYTAYAPLTCYFT [chain 1 D4G]	-4.2 log2 (difference from the parental peptide)
chain 1 EEDTYTAYAPLTCYFT [chain 1 D4T]	-4.12 log2 (difference from the parental peptide)
chain 1 EEDMYTAYAPLTCYFT [chain 1 D4M]	-3.8 log2 (difference from the parental peptide)
chain 1 EEDWYTAYAPLTCYFT [chain 1 D4W]	-2.51 log2 (difference from the parental peptide)
chain 1 EEDHYTAYAPLTCYFT [chain 1 D4H]	-5.75 log2 (difference from the parental peptide)
chain 1 EEDFYTAYAPLTCYFT [chain 1 D4F]	-3.98 log2 (difference from the parental peptide)
chain 1 EHDDYTAYAPLTCYFT [chain 1 E2H]	-2.04 log2 (difference from the parental peptide)
chain 1 EQDDYTAYAPLTCYFT [chain 1 E2Q]	-1.88 log2 (difference from the parental peptide)
chain 1 EWDDYTAYAPLTCYFT [chain 1 E2W]	-1.18 log2 (difference from the parental peptide)
chain 1 ERDDYTAYAPLTCYFT [chain 1 E2R]	-4.37 log2 (difference from the parental peptide)
chain 1 EPDDYTAYAPLTCYFT [chain 1 E2P]	-3.03 log2 (difference from the parental peptide)
chain 1 EEDDYTAYAPLTCYWT [chain 1 F15W]	-1.58 log2 (difference from the parental peptide)
chain 1 EEDDYTAYAPLTCYST [chain 1 F15S]	-0.0882 log2 (difference from the parental peptide)
chain 1 EEDDYTAYAPLTCYAT [chain 1 F15A]	1.49 log2 (difference from the parental peptide)
chain 1 EEDDYTAYAPLTCYCT [chain 1 F15C]	-4.83 log2 (difference from the parental peptide)
chain 1 EEDDYTAYAPLTCYKT [chain 1 F15K]	0.923 log2 (difference from the parental peptide)
chain 1 EEDDYTAYAPLTCYVT [chain 1 F15V]	1.4 log2 (difference from the parental peptide)
chain 1 EEDDYTAYAPLTCYIT [chain 1 F15I]	0.969 log2 (difference from the parental peptide)
chain 1 EEDDYTAYAPLTCYDT [chain 1 F15D]	-2.26 log2 (difference from the parental peptide)

Variant	enrichment
chain 1 EEDDYVAYAPLTCYFT [chain 1 T6V]	-3.51 log2 (difference from the parental peptide)
chain 1 EEDDYKAYAPLTCYFT [chain 1 T6K]	-1.03 log2 (difference from the parental peptide)
chain 1 EEDDYYAYAPLTCYFT [chain 1 T6Y]	-1.54 log2 (difference from the parental peptide)
chain 1 EEDDYLAYAPLTCYFT [chain 1 T6L]	-2.59 log2 (difference from the parental peptide)
chain 1 EEDDYEAYAPLTCYFT [chain 1 T6E]	2.94 log2 (difference from the parental peptide)
chain 1 EEDDYHAYAPLTCYFT [chain 1 T6H]	-0.386 log2 (difference from the parental peptide)
chain 1 EEDDYFAYAPLTCYFT [chain 1 T6F]	-4.46 log2 (difference from the parental peptide)
chain 1 EEDDYMAYAPLTCYFT [chain 1 T6M]	-1.2 log2 (difference from the parental peptide)
chain 1 EEDDYAAYAPLTCYFT [chain 1 T6A]	1.9 log2 (difference from the parental peptide)
chain 1 EEDDYTAYAPLCCYFT [chain 1 T12C]	-4.88 log2 (difference from the parental peptide)
chain 1 EEDDYTAYAPLKCYFT [chain 1 T12K]	-2.25 log2 (difference from the parental peptide)
chain 1 EEDDYTAYAPLRCYFT [chain 1 T12R]	-1.17 log2 (difference from the parental peptide)
chain 1 EEDDYTAYAPLGCYFT [chain 1 T12G]	-4.11 log2 (difference from the parental peptide)
chain 1 EEDDYTAYAPLMCYFT [chain 1 T12M]	2.93 log2 (difference from the parental peptide)
chain 1 EEDDYTAYAPLFCYFT [chain 1 T12F]	2.42 log2 (difference from the parental peptide)
chain 1 EEDDYTAYAPLLCYFT [chain 1 T12L]	3.18 log2 (difference from the parental peptide)
chain 1 EEDDYTAYAPLQCYFT [chain 1 T12Q]	1 log2 (difference from the parental peptide)
chain 1 EEDDYTAYAPLSCYFT [chain 1 T12S]	0.347 log2 (difference from the parental peptide)
